How the values were obtained:
Assay in all cases: BLI
[1] = biological target: GlcNAc-IgG3 Fc (human IgG3 Fc with a single GlcNAc at N297) (human)
[2] = biological target: Man5-IgG3 Fc (human IgG3 Fc with the GlcNAc2Man5 glycoform) (human)
[3] = biological target: High mannose (Man8-Man12) glycoform of human IgG3 Fc (human)

Kd [1]: 506 nM | koff [1]: 0.0858 s⁻¹ | kon [1]: 170000 M⁻¹ s⁻¹ | Kd [2]: 46.5 nM | Kd [3]: 41.4 nM | koff [3]: 0.0065 s⁻¹ | kon [3]: 160000 M⁻¹ s⁻¹
Substance: Fcγ receptor IIIA, high affinity polymorph (V158)

From publication PMC5694352
